Experimental findings from PMC9871958 (Protein & Cell, 2022) are described below.

By Kd is commonly meant the concentration at which binding is half-saturated. A low value points to higher affinity.

In assay [1] the target is T1, SARS-CoV-2 RBD protein (SARS-CoV-2, UniProt P0DTC2). As to the kind of experiment: SPR. As to conditions: both partners purified.
The target in assay [2] is T1, SARS-CoV-2 RBD protein. The assay can be described thus: cell-based or functional assay.

B1: 1F (antibody, V domains shown)
VH: EVQLVESGPGLVKPSETLSLTCTVSGGSISSSSYYWGWIRQPPGKGLEWIGSIYYRGSTYYNPSLKSRVTISVDTSKNQFSLKLSSVTAADTAVYYCARHVRSAYYYGSGSYRDEGNWFDPWGQGTLVTVSS
VL: QSVLTQPPSVSGAPGQRVTISCTGTRSNIGAGHDVHWYQQLPGTAPKLLIYGNNNRPSGVPDRFSGAKSGTSASLAITGLQAEDEADYYCQSYDRTLTSYVFGTGTKVTVL
B1 showed a Kd in the assay with SARS-CoV-2 RBD protein [1] of 0.077 nM. In addition, in the assay with SARS-CoV-2 RBD protein [2], the “IC50 of neutralisation of authentic SARS-CoV-2 virus (1F blocks RBD-ACE2)” value stood at 0.018 µg/mL.
